In paper PMC9527803:

Target: baker's yeast alcohol dehydrogenase (baker's yeast) (UniProt P00330)
Test: native MS; nano-ESI from 0.2 mol/L ammonium acetate, protein 2 to 5 x 10^-6 mol/L, Q Exactive UHMR modified for deposition

- stoichiometry N: 4
Substance: baker's yeast alcohol dehydrogenase (from UniProt P00330 1-348) (enzyme)
